Source: the supplement of paper PMC12042874
± gives the uncertainty stated by the source.

Assay: amyloid nucleation score (Sup35N fusion, yeast selection) (log enrichment); library NNK3; higher = more nucleation; inactive = no reads after selection
Summary of the method: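 Random libraries were run with three technical output replicates. In each, psi-negative yeast expressing Sup35N fused to peptides of 20 random codons were induced 24 hours with 100 μM copper sulfate and grown 7 days at 30°C on medium lacking adenine and uracil, and input and output plasmid inserts were Illumina-sequenced. The nucleation score is the DiMSum log enrichment of output over input reads, centred on the mode score of non-aggregating sequences, and sequences under 100 input reads were excluded.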

| Substance | amyloid nucleation score |
| --- | --- |
| GSTVEYTFGDWKYQDMSSVC | inactive |
| SESPKMLVHVVSHILRDFSE | inactive |
| FGHIGQRRSFVIHLMHDGSP | inactive |
| TRPGLKWWVLRRMRHFGRRV | inactive |
| RMAYNFTKSR | inactive |
| LYYKSLGRCRNYLYCSH | 0.596 ± 0.12 |
| DLSRDMTNVSCRKSGLWGSG | inactive |
| LYRAIIIRRWFGNMGDFHKP | inactive |
| VIVICFIFLMNVIPIQACWT | inactive |
| VSMIKRLGHCGVLGGKTYRV | -0.671 ± 0.8 |
| SKFCSGSLFMIRCILGSRYL | inactive |
| VNRNVLTVSGCCLVYAPLC | 2.26 ± 0.06 |
| SEPIWYFRGFFCGLGLIWGW | -0.389 ± 0.98 |
| FWPMFSVVVRRRKFHSTPVH | inactive |
| VRVTVLFEIHGDVCMLMSVA | 0.827 ± 0.13 |
| LLYQFSELQMASWNNKKKEL | inactive |
| ISESN | inactive |
| YYSGVFPNVVGRS | inactive |
| FGWLTPDMKFLCTYKQRISG | inactive |
| LLCLVAKRYGMGRLF | inactive |
| RISSIAEDSSRAGASEHPGQ | -0.57 ± 1.8 |
| FPHRMLRPCYESDTFPPWTG | inactive |
| KNQNMMMSSQFSMYCWFRLT | inactive |
| MKNRYLNRCTLVANAFGLKE | inactive |

| Substance | amyloid nucleation score |
| --- | --- |
| VGSPWSYKG | inactive |
| TECMGGGSVWTQW | inactive |
| CSYWTGYCCQIVGLKSFGLV | 2.4 ± 0.083 |
| DILTDQS | inactive |
| LGVMSAVRAIGGFEILIGCV | inactive |
| FSAGGVPYYICYSCIAKFRL | inactive |
| NDSSQLLITI | inactive |
| NHSES | inactive |
| MILSNKVLIGCE | inactive |
| CNANGASAVKF | inactive |
| DVMRGIKYVRRVNAQLTGSS | inactive |
| EFGDFVDKASMLNIWDGIVG | inactive |
| NFFTL | inactive |
| FNKLVWNHLSGCV | inactive |
| RVSRADRGRCSSFYNLRVLS | inactive |
| QTCSNYLNTFRSRRDWLVKG | inactive |
| LFRVSWMLGNKIDISKSIYR | inactive |
| TDRTQ | inactive |
| LFYLGIYDFDGNW | inactive |
| GNSIRAVVLLRMGLELDSGV | inactive |
| SVIMFINRIPGSNPL | inactive |
| IIAGGTYECQIQIVYF | 1.22 ± 0.14 |
| KIKSLELMYDISERNF | inactive |
| NACSARMGVVYNMLPSGESR | inactive |

| Substance | amyloid nucleation score |
| --- | --- |
| CLLTLMREVSCLLYFYHRAW | 1.56 ± 0.091 |
| KGSTLVMLP | inactive |
| TIKYVDRPARTGGEALAIVV | -0.323 ± 1 |
| ALSGSGLRLTPMKQ | inactive |
| CSRPVVLIKGLLWAFRRWAY | inactive |
| DEVVWY | inactive |
| ISTDDKIIGST | inactive |
| CLMSVSAPFHVFALYIQLFC | inactive |
| LSGADTYRSTTRSYGGNDVV | -0.641 ± 1.1 |
| EKRPNPVSICLRWIKEKAT | inactive |
| MVLYGAHECRDDKSVSLTRC | inactive |
| LNLSYGM | inactive |
| VCGIYYVFLAGWEHKSRSKE | 1.86 ± 0.089 |
| TAKSSGINDRLTQRI | inactive |
| VSYTRTIPLKGSNLMLIWF | inactive |
| TSDIDIY | -0.397 ± 0.73 |
| SYSDRGCVGMNVLSVFEGWD | inactive |
| MSFTMMCMSFCSSILRYNLS | inactive |
| VYRRGDIATLLNDI | inactive |
| MLLGRLSLEVKFEWIFPRIG | 0.687 ± 0.14 |
| YEVSTRRRVM | inactive |
| SMRILR | inactive |
| SAEVF | inactive |
| AYLYNFLWDTGSVIWVVGHL | inactive |

| Substance | amyloid nucleation score |
| --- | --- |
| HYFGKT | inactive |
| ILFSQETRYELSL | inactive |
| QVLQKVHG | inactive |
| VQYFPISGDARGRQLQRI | inactive |
| LVVIWSRYSPRRNYPVTSNM | 0.679 ± 0.24 |
| VITADLRSMIWDVPKNVY | 0.92 ± 0.16 |
| VTQMKNTLY | inactive |
| VLGCFVVKGSKFVDLPEFHR | 1.3 ± 0.085 |
| WDYGKWE | inactive |
| KCLLV | inactive |
| GYVPMYVCLSPYHKTVLWLS | 0.447 ± 0.2 |
| NSFSLGNSLNPYKAAPRRML | inactive |
| ASNCDPMIHFLMHKVYKSFY | -0.103 ± 0.64 |
| ECADLWARLYHFF | inactive |
| AYWRREKMCSVPGGSWSGWV | inactive |
| TSLGFSLSSSTDAFVEKFEG | 1.56 ± 0.077 |
| KDLYIIIITRMYRIFKS | inactive |
| ICTVNMTNQSEC | inactive |
| GYMGVGRIVSA | inactive |
| CVIITFESRILDELICDTVR | inactive |
| VAEEHSVLSCQDADFCASSL | inactive |
| RNKSVVPHVLRELCFMVWLV | inactive |
| IARFGVKSVGWSFAENMSST | inactive |
| GSISIVVQM | 2.2 ± 0.075 |

| Substance | amyloid nucleation score |
| --- | --- |
| RCPTPTWSINGPC | inactive |
| WNYHFPSS | 0.339 ± 0.37 |
| IYSRELHVCAVSIADFIWFW | inactive |
| TSHPYNHVESSG | 0.972 ± 0.095 |
| IICLK | inactive |
| GYLLTVLLLSMFNSFDNDWL | inactive |
| KSRSYPCIEPNV | inactive |
| SGMLKRFSALRGISASVVGV | inactive |
| FHYCCYITAAQYYDACCVVP | inactive |
| VCVKPLCFLAHMYGKC | inactive |
| NVHVISVFGFYEVTLFNDEV | inactive |
| RCMTHRTLAHENRFVHTRCW | inactive |
| IIADKVQSLISFDNVGMCQW | inactive |
| VMYHGMITLLVMLKTEQRKK | inactive |
| EMRSFVGNSCI | -0.613 ± 1.5 |
| CDVFVSY | inactive |
| RLPRRSEDIKALRMDIRLYR | inactive |
| RLETMGLRNNVVCNSSEALQ | inactive |
| VYWFKELADSITRCVKNYIY | inactive |
| NWLLRYLYCRTNFGCCYR | -0.552 ± 0.7 |
| NRVDIRLVKCYWSGDSGGVE | inactive |
| CQSSDFTEFVRKVKRPPQAC | inactive |
| VFLKTVAKQFCLANVKRSH | inactive |
| LFLVA | inactive |

| Substance | amyloid nucleation score |
| --- | --- |
| PVYVG | inactive |
| WHNMSMMKSVPTYSGESHTR | 0.97 ± 0.18 |
| AHVKLNDVFSWI | inactive |
| LDLCSRL | inactive |
| NTSWLNSWATVITIWPYCAL | 0.724 ± 0.2 |
| LFGGCLSLDDIVTDRLMTCF | inactive |
| CKSNKCSAVMVLVA | inactive |
| HRWNMSWFGYFNLRLSVIET | inactive |
| KLGMSPSSLYSPAR | inactive |
| ICRLVLIWVPRSSGGVSSSR | inactive |
| IYSYTVFPSFGGMLCMVLVG | inactive |
| VSSCAC | inactive |
| MGVVRFTYCDIKV | inactive |
| VNNSRGSAYSEVRSILRRYA | inactive |
| SILLLDSEGSMNLEAIV | inactive |
| TGYWI | inactive |
| MVSSLRALCPQHFVCSVVCM | 0.885 ± 0.14 |
| GLYPQWLGDGRWLSSGLATL | 0.138 ± 0.33 |
| AYELHKTPNGPSPSESLALI | inactive |
| SYSTARDSVGLSSWSSLIKW | inactive |
| HIKKRYKLLAMLLMSDLR | inactive |
| MIYSHDHTYHSCLLDAVSCR | inactive |
| TWKQDWDNFSYVLNSSSHST | inactive |
| MTILYYDS | inactive |

| Substance | amyloid nucleation score |
| --- | --- |
| CLDHIAPKRKIQEVGLS | inactive |
| ISCPLYQGMGHLIH | inactive |
| YLESGLTS | inactive |
| KPRILFQCPIRKVLRVGVKF | inactive |
| YSTVDQLARGLQKLMVWLDV | inactive |
| TCSYANHMSKVFEVVMV | inactive |
| NGFSFRLGWH | 1.55 ± 0.1 |
| NMIWANEQE | inactive |
| VYYNSVNVLSVSGCRLDGLN | 1.66 ± 0.11 |
| QAQIYWM | inactive |
| DMLHLWYLSVG | inactive |
| RFHSSLCCNMVWF | 3.06 ± 0.06 |
| SYLNRPWD | inactive |
| FNKGYV | inactive |
| INSSILGSCLWWFLFCF | 1.2 ± 0.12 |
| GFWLGVMVTHTSTTYSAFTP | 0.059 ± 0.29 |
| YYCCC | 1.63 ± 0.072 |
| WCGGDYVLKNGKFALGVVGS | inactive |
